The values that follow come from ChEMBL document CHEMBL1250451, “Mechanistic insights into a Ca2+-dependent family of alpha-mannosidases in a human gut symbiont” (Nat Chem Biol, 2010).

Assay type in all cases: protein assay; call rule not given here
Substrate in data set [1]: O=[N+]([O-])c1ccc(O[C@H]2O[C@H](CO)[C@@H](O)[C@H](O)[C@@H]2O)cc1
As to the kind of experiment: (§1) Activity of Bacteroides thetaiotaomicron GH92 alpha-mannosidase GH92 alpha-mannosidase 3990 assessed as mannose release after 16 hrs by HPLC.

Substrate in data set [2]: OC[C@H]1O[C@H](O[C@H]2[C@@H](O)[C@H](O)[C@@H](CO)O[C@@H]2O)[C@@H](O)[C@@H](O)[C@@H]1O
The description is as §1.

Substrate in data set [3]: O=[N+]([O-])c1ccc(O[C@H]2O[C@H](CO)[C@@H](O)[C@H](O)[C@@H]2O)cc1
As to the kind of experiment: (§2) Ratio of Kcat to Km for Bacteroides thetaiotaomicron GH92 alpha-mannosidase GH92 alpha-mannosidase 3990 assessed as mannose release after 16 hrs by HPLC.

Substrate in data set [4]: O=[N+]([O-])c1ccc(O[C@H]2O[C@H](CO)[C@@H](O)[C@H](O)[C@@H]2O)c([N+](=O)[O-])c1
Described as §2.

Substrate in data set [5]: OC[C@H]1O[C@H](O[C@H]2[C@@H](O)[C@H](O)[C@@H](CO)O[C@@H]2O)[C@@H](O)[C@@H](O)[C@@H]1O
The data set is described as §2.

Substrate in data set [6]: O=[N+]([O-])c1ccc(O[C@H]2O[C@H](CO)[C@@H](O)[C@H](O)[C@@H]2O)cc1
Briefly: (§3) Ratio of Kcat to Km for Bacteroides thetaiotaomicron GH92 alpha-mannosidase 3990 D644N mutant assessed as as mannose release after 16 hrs by HPLC relative to wild type enzyme.

Substrate in data set [7]: O=[N+]([O-])c1ccc(O[C@H]2O[C@H](CO)[C@@H](O)[C@H](O)[C@@H]2O)c([N+](=O)[O-])c1
The description is as §3.

Substrate in data set [8]: OC[C@H]1O[C@H](O[C@H]2[C@@H](O)[C@H](O)[C@@H](CO)O[C@@H]2O)[C@@H](O)[C@@H](O)[C@@H]1O
The data set is described as §3.

Substrate in data set [9]: O=[N+]([O-])c1ccc(O[C@H]2O[C@H](CO)[C@@H](O)[C@H](O)[C@@H]2O)cc1
As to the kind of experiment: (§4) Activity of Bacteroides thetaiotaomicron GH92 alpha-mannosidase 3990 D644N mutant assessed as as mannose release after 16 hrs by HPLC relative to wild type enzyme.

Substrate in data set [10]: OC[C@H]1O[C@H](O[C@H]2[C@@H](O)[C@H](O)[C@@H](CO)O[C@@H]2O)[C@@H](O)[C@@H](O)[C@@H]1O
The data set is described as §4.

Substrate in data set [11]: O=[N+]([O-])c1ccc(O[C@H]2O[C@H](CO)[C@@H](O)[C@H](O)[C@@H]2O)cc1
As to the kind of experiment: (§5) Ratio of Kcat to Km for Bacteroides thetaiotaomicron GH92 alpha-mannosidase 3990 D644A mutant assessed as as mannose release after 16 hrs by HPLC relative to wild type enzyme.

Substrate in data set [12]: O=[N+]([O-])c1ccc(O[C@H]2O[C@H](CO)[C@@H](O)[C@H](O)[C@@H]2O)c([N+](=O)[O-])c1
Described as §5.

Substrate in data set [13]: OC[C@H]1O[C@H](O[C@H]2[C@@H](O)[C@H](O)[C@@H](CO)O[C@@H]2O)[C@@H](O)[C@@H](O)[C@@H]1O
Described as §5.

Substrate in data set [14]: O=[N+]([O-])c1ccc(O[C@H]2O[C@H](CO)[C@@H](O)[C@H](O)[C@@H]2O)cc1
As to the kind of experiment: (§6) Activity of Bacteroides thetaiotaomicron GH92 alpha-mannosidase 3990 D644A mutant assessed as as mannose release after 16 hrs by HPLC relative to wild type enzyme.

Substrate in data set [15]: OC[C@H]1O[C@H](O[C@H]2[C@@H](O)[C@H](O)[C@@H](CO)O[C@@H]2O)[C@@H](O)[C@@H](O)[C@@H]1O
The data set is described as §6.

Substrate in data set [16]: O=[N+]([O-])c1ccc(O[C@H]2O[C@H](CO)[C@@H](O)[C@H](O)[C@@H]2O)cc1
As to the kind of experiment: (§7) Activity of Bacteroides thetaiotaomicron GH92 alpha-mannosidase 2199 D648A mutant assessed as as mannose release after 16 hrs by HPLC relative to wild type enzyme.

Substrate in data set [17]: OC[C@H]1O[C@H](O[C@H]2[C@@H](O)[C@H](O)[C@@H](CO)O[C@@H]2O)[C@@H](O)[C@@H](O)[C@@H]1O
Described as §7.

Substrate in data set [18]: O=[N+]([O-])c1ccc(O[C@H]2O[C@H](CO)[C@@H](O)[C@H](O)[C@@H]2O)cc1
As to the kind of experiment: (§8) Ratio of Kcat to Km for Bacteroides thetaiotaomicron GH92 alpha-mannosidase 2199 D648A mutant assessed as as mannose release after 16 hrs by HPLC relative to wild type enzyme.

Substrate in data set [19]: OC[C@H]1O[C@H](O[C@H]2[C@@H](O)[C@H](O)[C@@H](CO)O[C@@H]2O)[C@@H](O)[C@@H](O)[C@@H]1O
Described as §8.

Substrate in data set [20]: O=[N+]([O-])c1ccc(O[C@H]2O[C@H](CO)[C@@H](O)[C@H](O)[C@@H]2O)cc1
As to the kind of experiment: (§9) Activity of Bacteroides thetaiotaomicron GH92 alpha-mannosidase 2199 D648N mutant assessed as as mannose release after 16 hrs by HPLC relative to wild type enzyme.

Substrate in data set [21]: OC[C@H]1O[C@H](O[C@H]2[C@@H](O)[C@H](O)[C@@H](CO)O[C@@H]2O)[C@@H](O)[C@@H](O)[C@@H]1O
The description is as §9.

Substrate in data set [22]: O=[N+]([O-])c1ccc(O[C@H]2O[C@H](CO)[C@@H](O)[C@H](O)[C@@H]2O)cc1
Briefly: (§10) Ratio of Kcat to Km for Bacteroides thetaiotaomicron GH92 alpha-mannosidase 2199 D648N mutant assessed as as mannose release after 16 hrs by HPLC relative to wild type enzyme.

Substrate in data set [23]: OC[C@H]1O[C@H](O[C@H]2[C@@H](O)[C@H](O)[C@@H](CO)O[C@@H]2O)[C@@H](O)[C@@H](O)[C@@H]1O
The data set is described as §10.

Substitutions are numbered along the chain they refer to. In names and notes the source's numbering stands.

B1: Alpha-1,2-mannosidase (BT_3990) (Bacteroides thetaiotaomicron), Q8A0N1 (protein)
chain: MKRLLLIACILNCTLLSQAKDWTQYVNPLMGSQSTFELSTGNTYPAIARPWGMNFWTPQTGKMGDGWQYTYTANKIRGFKQTHQPSPWINDYGQFSIMPIVGQPVFDEEKRASWFAHKGEVATPYYYKVYLAEHDIVTEMTPTERAVLFRFTFPENDHSYVVVDAFDKGSYIKIIPEENKIIGYTTRNSGGVPENFKNYFIIEFDKPFTYKATVENGNLQENVAEQTTDHAGAIIGFKTRKGEQVNARIASSFISFEQAAANMNELGKDNIEQLAQKGKDAWNQVLGKIEVEGGNLDQYRTFYSCLYRSLLFPRKFYELDANGQPIHYSPYNGQVLPGYMFTDTGFWDTFRCLFPLLNLMYPSVNKEMQEGLINTYLESGFFPEWASPGHRGCMVGNNSASILVDAYMKGVKVDDIKTLYEGLIHGTENVHPEVSSTGRLGYEYYNKLGYVPYDVKINENAARTLEYAYDDWCIYRLAKELKRPKKEISLFAKRAMNYKNLFDKESKLMRGRNEDGTFQSPFSPLKWGDAFTEGNSWHYTWSVFHDPQGLIDLMGGKEMFVTMMDSVFAVPPIFDDSYYGQVIHEIREMTVMNMGNYAHGNQPIQHMIYLYDYAGQPWKAQYWLRQVMDRMYTPGPDGYCGDEDNGQTSAWYVFSALGFYPVCPGTDEYVMGTPLFKKATLHFENGNSLVIDAPNNSTENFYIDSMSFNGADHTKNYLRHEDLFKGGTIKVDMSNRPNLNRGTKEEDMPYSFSKE
B1: the results for the Km in data set [1] and in [2] were 4200 µM and 760 µM, respectively. Besides, the values for the kcat in data set [1] and in data set [2] were 0.0933 s⁻¹ and 86.7 s⁻¹, respectively. In addition, the kcat/Km in [3] was determined as 21.7 M⁻¹ s⁻¹; in data set [4], 16.7 M⁻¹ s⁻¹; in [5] it was 113000 M⁻¹ s⁻¹.

B2: Alpha-1,2-mannosidase (BT_3990) (Bacteroides thetaiotaomicron), Q8A0N1 D644N (protein)
chain: B1 chain with D644N
With B2, the kcat/Km result in data set [6] was “Not Active”; in [7], 0.567 M⁻¹ s⁻¹; in [8], 0.533 M⁻¹ s⁻¹. For the same protein, the Km entry in data set [9] is “Not Active”; in data set [10], 720 µM. Also, the figures for the kcat result in data set [9] and in [10] were “Not Active” and 0.000383 s⁻¹, respectively.

B3: Alpha-1,2-mannosidase (BT_3990) (Bacteroides thetaiotaomicron), Q8A0N1 D644A (protein)
chain: B1 chain with D644A
As to B3, the catalytic efficiency (kcat/Km) result in data set [11] was “Not Active”; in [12], 0.0167 M⁻¹ s⁻¹; in [13] it was 1.27 M⁻¹ s⁻¹. Besides, the Km entry in data set [14] is “Not Active”; in data set [15], 620 µM. For the same protein, the values for the catalytic constant (kcat) entry in [14] and in data set [15] were “Not Active” and 0.000783 s⁻¹, respectively.

B4: Alpha-1,2-mannosidase (BT_2199) (Bacteroides thetaiotaomicron), Q8A5N9 D648A (protein)
chain: MVTRLFFLSICFPFLLTSCQQSKKTVEFVDYVNPLMGTESTFAFSHGNTYPAVAVPWGMNFWSPQTGENGSGWMYTYTDSLMRGFRQTHQPSPWINDYGTFSIMPLAGELKMSHKERLVPFSHQQEKATPYNYSVTFNNGLQTSLSATSRGAVFEVSFPEKEDQYVVVDAYNGGSSITIEPEKRLVKGATRYNNGGVPDNFANYFMMEFSHPVIEYGTYNGDTLLHHQTDVAADYTCAYLKFDVPAGEKLTIRTASSFISPEQAAINFNREVADADVQLISGKAREQWNNYLGRVEAEGGTDEQLRTFYSCLYRTLLFPREFYEFDSQGNPVYYSPYDGNVHDGYMYTDNGFWDTFRAVHPLFTLLYPEVSERVTQSIINAYNESGFMPEWASPGHRGCMIGNNSVSLLVDAWMKGIQTVDAEKALEAMIHQTQARHAEIASVGRDGFEYYDKLGYVPYPEVPEATAKTLEYAYADWCIARFAESLGKQDIADQYYQKAPNYRNLYYPEHGFMWTKDAKGNWRDRFDATEWGGPFTEGSSWHWTWSVFHDPEGLSELMGGHEPMIARLDSMFVAPNTYNYGTYGFVIHEIAEMVALNMGQYAHGNQPVQHAIYLYDYIGQPWKTQYHLRNVMDKLYNSGSKGYCGDEANGQTSAWYVFSAMGFYPVCPGMPEYAIGSPLFKKVTLHLPEGKNFVVSAADNAADRPYIRKALLNGQEFTRNYLTHDELKQGGELNLSMDSVPNQQRGTQPADFPYSYSK
Regarding B4, the Km result in [16] was “Not Active”; in data set [17] it was 2720 µM. Further, the figures for the kcat entry in [16] and in data set [17] were “Not Active” and 0.000433 s⁻¹, respectively. Besides, the kcat/Km entry in data set [18] is “Not Active”; in data set [19], 0.167 M⁻¹ s⁻¹.

B5: Alpha-1,2-mannosidase (BT_2199) (Bacteroides thetaiotaomicron), Q8A5N9 D648N (protein)
chain: B4 chain with A648N
In the case of B5, the values for the Km entry in [20] and in data set [21] were “Not Active” and 1270 µM, respectively. Further, the turnover number (kcat) entry in data set [20] was “Not Active”; in data set [21], 0.000483 s⁻¹. Further, the kcat/Km result in [22] was “Not Active”; in data set [23] it was 0.383 M⁻¹ s⁻¹.

In general, Km refers to the concentration of substrate that gives half-maximal velocity. What is called kcat is the maximal rate divided by the concentration of active sites. What is called kcat/Km is the second-order rate constant that governs catalysis at low substrate concentration.
